This sample holds only a part of the variants without activity.
B1: TPR 5TU (parent)
chain: GGAUCUUCUCGAUCUAACAAAAAAGACAAAUCUGCCACAAAGCUUGAGAGCAUCUUCGGAUGCAGAGGCGGCAGCCUUCGGUGGCGCGAUAGCGCCAACGUUCUCAACUAUGACACGCAAAACGCGUGCUCCGUUGAAUGGAGUUUAUCAUG

Variants of: B1
Experiment: polymerase ribozyme fitness, log enrichment relative to wild type (log ratio); higher = more active; in vitro selection for triplet polymerase activity
Outline: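 Only genotypes with ≥10 input reads and ≥1 read per output were kept after Illumina sequencing of input and output libraries. These libraries were PCR-built, transcribed mutants of each subunit of a heterodimeric triplet polymerase ribozyme, each put through one triplicate in vitro selection round with frozen incubation at −7 °C, gel excision of extended constructs, streptavidin-bead capture and RT-PCR. Fitness is a logarithmic ratio of genotype enrichment to wild-type enrichment, from inverse-variance-weighted replicate averages, with the logarithm in base 2.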

Compared with U15G C18A C54A G94A G117C C125A, C85U G86U C105U U135A A150C is lower in “polymerase ribozyme fitness (log ratio)” value: -1.44 for the first, ≤ -4.2 for the second.

Compared with U6G C57A U61A G65A A121U G126A, A21G C36U A52C A107U U127C is lower in “polymerase ribozyme fitness (log ratio)” value: -3.12 for the first, ≤ -4.2 for the second.

First: C5G U55A C85U C116U
Second: C35U A106C U144A
The “polymerase ribozyme fitness (log ratio)” value of the first is higher: -1.06 for the first, -2.33 for the second.

U7G C125U and U55A C69A C76U U82G are within 0.2 log units of each other in “polymerase ribozyme fitness (log ratio)” value: -3.39 for the first, -3.45 for the second.

Compared with A30U C93U, A37G C96G is higher in “polymerase ribozyme fitness (log ratio)” value: -3.92 for the first, -1.89 for the second.

Compared with G50A C72U C85A, G50A A52C C57G C93U is lower in “polymerase ribozyme fitness (log ratio)” value: -2.69 for the first, -3.12 for the second.

G25A C35U G50C G88U C118G U151G and A30G A37C G94C cannot be ordered by “polymerase ribozyme fitness (log ratio)” value: ≤ -4.2 for the first, ≤ -4.2 for the second.

First: C96G U111C
Second: C38U G84U C123U
The “polymerase ribozyme fitness (log ratio)” value of the first is lower: -3.62 for the first, -0.916 for the second.

First: A19G G92A G124U
Second: G50A G92A U101G G117C
The “polymerase ribozyme fitness (log ratio)” value of the first is higher: -3.61 for the first, -3.96 for the second.

U6G C35U G58C A73G G140U and C36A C57U C63A G86A A147G cannot be ordered by “polymerase ribozyme fitness (log ratio)” value: ≤ -4.2 for the first, ≤ -4.2 for the second.

Going from C57U U104C C116G A120U C123A to U9G U13C A24U A49C C51G A52C A73C U104A C108G, the “polymerase ribozyme fitness (log ratio)” value falls from 0.628 to ≤ -4.2.

First: A22G U55A G83U C129A
Second: C85A G141A U146G
The “polymerase ribozyme fitness (log ratio)” value of the first is lower: -3.65 for the first, -1.68 for the second.

First: G48C G84A
Second: A3G G11C G34C A41G C87A
The “polymerase ribozyme fitness (log ratio)” value of the first is higher: -3.2 for the first, -4.04 for the second.

A37C G84U U127G G128A U134G and A19G U44G C63U C76G C103A C125A cannot be ordered by “polymerase ribozyme fitness (log ratio)” value: ≤ -4.2 for the first, ≤ -4.2 for the second.

A3U U15A A21U U31A C85G and A22G C87U are within 0.2 log units of each other in “polymerase ribozyme fitness (log ratio)” value: -0.347 for the first, -0.258 for the second.

Going from C5A C96A G143C to U61G C69U C93G G143A, the “polymerase ribozyme fitness (log ratio)” value falls from -3.53 to ≤ -4.2.

Going from A142C to A21C C87A G141C, the “polymerase ribozyme fitness (log ratio)” value falls from -0.793 to ≤ -4.2.

Compared with A19U G58U C87U A119U, A20U G67A is lower in “polymerase ribozyme fitness (log ratio)” value: -2.02 for the first, -3.89 for the second.

A52U G140C and C93A C103G A107U A119G G140A cannot be ordered by “polymerase ribozyme fitness (log ratio)” value: ≤ -4.2 for the first, ≤ -4.2 for the second.

First: A21C G83U C116G
Second: C35U C87U C96U C114U
The “polymerase ribozyme fitness (log ratio)” value of the first is higher: -0.153 for the first, -3.78 for the second.

Compared with A3C A16U A26U U55A, G84A U109A A115C C123A is higher in “polymerase ribozyme fitness (log ratio)” value: ≤ -4.2 for the first, -1.8 for the second.

Compared with A16C U135A, A20U G34C C96G is lower in “polymerase ribozyme fitness (log ratio)” value: -2.12 for the first, ≤ -4.2 for the second.

First: C79U G83A A107G A110G U144G
Second: A52G C69G G71C
The “polymerase ribozyme fitness (log ratio)” value of the first is lower: ≤ -4.2 for the first, -2.11 for the second.

A30C C51U G58U G80A and U53C U77G G124C U135C cannot be ordered by “polymerase ribozyme fitness (log ratio)” value: ≤ -4.2 for the first, ≤ -4.2 for the second.

First: A37U A39U A49C G50C G84A A98C G143U
Second: G86U C96U
The “polymerase ribozyme fitness (log ratio)” value of the first is lower: ≤ -4.2 for the first, -2.68 for the second.

U82A G88A A115U A121U and G42C G86U A150U cannot be ordered by “polymerase ribozyme fitness (log ratio)” value: ≤ -4.2 for the first, ≤ -4.2 for the second.

Going from A16G C38A C76A C85U U134A to U15G G81A C118A A119C G133A A138U, the “polymerase ribozyme fitness (log ratio)” value falls from -4 to ≤ -4.2.

First: A19U A26U
Second: C72U C87A A137C U139A
The “polymerase ribozyme fitness (log ratio)” value of the first is higher: -2.56 for the first, ≤ -4.2 for the second.

Compared with A49C C57U A60G C76U C118A, C38U C85U C131G is higher in “polymerase ribozyme fitness (log ratio)” value: ≤ -4.2 for the first, -3.56 for the second.

Going from A47G C85U A138G to U4A A24U C57G C85U, the “polymerase ribozyme fitness (log ratio)” value rises from -4.18 to -0.18.

Going from A26U A29U G62U C99U C125U U134A to U9A A60U U61C C72U C93U, the “polymerase ribozyme fitness (log ratio)” value falls from -4.08 to ≤ -4.2.

First: A28C G67U U144C U151C
Second: A150G G152U
The “polymerase ribozyme fitness (log ratio)” value of the first is lower: ≤ -4.2 for the first, -3.43 for the second.

Going from A12C A21C C35A G58U U135G to G84U G117U C123A, the “polymerase ribozyme fitness (log ratio)” value rises from -4.1 to -1.62.

Compared with U13C A20U G48C C96G, G92U G136A is higher in “polymerase ribozyme fitness (log ratio)” value: -2.62 for the first, 0.353 for the second.

U82G G88C C93U C95G and A3U A29C G68C A73G cannot be ordered by “polymerase ribozyme fitness (log ratio)” value: ≤ -4.2 for the first, ≤ -4.2 for the second.

Compared with A3U A12G U13G A19C G143U, U7C C85U is higher in “polymerase ribozyme fitness (log ratio)” value: -2.98 for the first, -2.04 for the second.

First: U109G U151C
Second: U82A G83A C99U G117A U144A
The “polymerase ribozyme fitness (log ratio)” value of the first is lower: -3.91 for the first, -2.53 for the second.

Going from C51G U90G to U13G U56A A91G, the “polymerase ribozyme fitness (log ratio)” value rises from ≤ -4.2 to -3.81.

Going from C87A C99U to C5G G86U, the “polymerase ribozyme fitness (log ratio)” value rises from ≤ -4.2 to -2.77.

First: C36U U144C
Second: G92C C95U
The “polymerase ribozyme fitness (log ratio)” value of the first is lower: -1.23 for the first, -0.22 for the second.

First: G84A U102A C132U
Second: C54G C96U A142C
The “polymerase ribozyme fitness (log ratio)” value of the first is higher: -2.3 for the first, -3.34 for the second.

First: U13A A23U U31A A37C G84U C125A G140A G152U
Second: C14G C54U C72U
The “polymerase ribozyme fitness (log ratio)” value of the first is lower: ≤ -4.2 for the first, -3.4 for the second.
